Tests used:
[1] = biological target: FH-p53 (FLAG- and oligohistidine-tagged human p53) (human) (UniProt P04637); assay: pull-down; competitive GST pull-down: FH-TLP or FH-TBP co-applied with FH-p53 to beads with GST-TBP or GST-TLP; recovered p53 by band intensity
[2] = biological target: GST-TBP (glutathione S-transferase-tagged human TATA-binding protein) (human) (UniProt P20226); assay: pull-down; GST pull-down with increasing amounts of protein (p53 by the text, GST proteins by the legend); ratio of bound p53 to input by band intensity
Sequence of GST-TBP (glutathione S-transferase-tagged human TATA-binding protein) (human) (P20226 whole entry): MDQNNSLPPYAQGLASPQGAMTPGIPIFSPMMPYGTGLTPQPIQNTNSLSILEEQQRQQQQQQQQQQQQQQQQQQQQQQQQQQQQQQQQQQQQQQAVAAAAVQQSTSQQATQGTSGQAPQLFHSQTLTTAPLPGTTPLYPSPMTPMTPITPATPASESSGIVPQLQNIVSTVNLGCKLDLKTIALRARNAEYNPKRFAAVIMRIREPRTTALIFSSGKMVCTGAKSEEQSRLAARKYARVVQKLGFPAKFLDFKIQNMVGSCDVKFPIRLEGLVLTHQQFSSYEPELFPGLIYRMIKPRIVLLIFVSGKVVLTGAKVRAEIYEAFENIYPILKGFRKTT

| Substance | p53 recovered on GST-TLP with FH-TBP as competitor, percent of the control experiment [1] | ratio of bound p53 to input at the plateau [2] |
| --- | --- | --- |
| FH-TBP (purified competitor in the pull-down) (from UniProt P20226 1-339) (natural protein) | 6% |  |
| FH-p53 (FLAG- and oligohistidine-tagged human p53) (from UniProt P04637 1-393) (natural protein) |  | 0.5 |
